Source: patent US20130260436A1, “Methods of Identifying and Characterizing Natural Product Gene Clusters” (Victoria LInk Limited, priority 2010, published 2013)

Columns and labels:
BpsA [1] = target: T1, BpsA (Streptomyces lavendulae, UniProt Q1MWN4); assay: BpsA coupled assay for PPTase kinetic parameters, BpsA as variable substrate; format: biochemical, S. lavendulae ATCC 11924; settings: CoA fixed at 25 μM
T1 construct: 6His; made in house; host or cells: E. coli
Excerpt: Having established a linear relationship between concentration of holo-BpsA and the apparent rate of indigoidine synthesis in aqueous solution, we next wanted to test whether it was possible to evaluate PPTase activity by using acceleration of the rate of indigoidine synthesis as a measure of the rate of 4′-PP attachment to apo-BpsA. […] Under these conditions, the pigment synthesis reaction undergoes an initial acceleration phase as apo-BpsA is converted to holo-BpsA by the PPTase. […]
A590 values were then recorded as previously described. […] A590 values were then recorded as previously described. For derivation of PPTase velocity values, the slope between every 2-8 data points was measured across the entire data range with the resulting values forming a new data set (BpsA velocity). The slope between every 2-8 points in the BpsA velocity data set was then determined using the slope function of Microsoft Excel and the maximum value from the resulting data set for each reaction taken as a measure of PPTase velocity. […] For fast reactions smaller increments could be used, however for slow reactions noise from plate reader noise became a significant factor in point to point variation and created artificial fluctuations in measured slopes if too few points were used in slope determination. […]

BpsA [2] = assay: Qualitative PPTase activity in vivo by co-expression with a BpsA reporter in E. coli; format: cell-based, S. lavendulae ATCC 11924; settings: E. coli BL21(DE3), auto-induction agar plates
Experimental: Single colonies of E. coli co-expressing BpsA and an activating PPTase were inoculated onto pigment production agar plate using a sterile pipette tip and incubated for 16 hours at 37° C. Protein expression was then induced by IPTG addition as described in Section 4.9.2 and the plate incubated for a further 24 h at room temperature (18-25° C.).
We constructed plasmids that allowed IPTG regulated co-expression of a candidate PPTase and BpsA in E. coli BL21(DE3). To enable IPTG regulated co-expression the BpsA gene of S. lavendulae ATCC 11924 was cloned into pCDFDUET-1 (Novagen) and three candidate PPTases into the (origin of replication compatible) vector pET28a(+). […] In contrast, if IPTG was absent from the medium viable co-transformed cells were recovered with good efficiency (not shown). […] In order to circumvent this problem we employed auto-induction agar plates, prepared by addition of 1.5% agar to Studier ZYP-5052 auto-induction medium (Studier 2005). Use of auto-induction agar plates allowed for both rapid growth and efficient induction of pigment production following extended incubation at room temperature.

[3] = BpsA coupled assay for PPTase kinetic parameters, CoA as variable substrate; format: biochemical; settings: BpsA fixed at 0.83 μM
Excerpt: Having established a linear relationship between concentration of holo-BpsA and the apparent rate of indigoidine synthesis in aqueous solution, we next wanted to test whether it was possible to evaluate PPTase activity by using acceleration of the rate of indigoidine synthesis as a measure of the rate of 4′-PP attachment to apo-BpsA. Replicate solutions containing PPTase and all of the substrates necessary for both phosphopantetheinylation and indigoidine synthesis were established using a twofold serial dilution series of CoA (0.024-50 μM) in ninety six well plates. Reactions were initiated by addition of 0.83 μM BpsA each well of a dilution series, and absorbance at 590 nm was measured continuously. Under these conditions, the pigment synthesis reaction undergoes an initial acceleration phase as apo-BpsA is converted to holo-BpsA by the PPTase. […]
A590 values were then recorded as previously described. […] A590 values were then recorded as previously described. For derivation of PPTase velocity values, the slope between every 2-8 data points was measured across the entire data range with the resulting values forming a new data set (BpsA velocity). The slope between every 2-8 points in the BpsA velocity data set was then determined using the slope function of Microsoft Excel and the maximum value from the resulting data set for each reaction taken as a measure of PPTase velocity. […]

[4] = BpsA indigoidine synthesis kinetics, L-Gln as variable substrate; format: biochemical
Experimental: Analysis of BpsA reaction rate over a replicate two fold serial dilution series (0.78 μM-16 mM) of L-gln was conducted at both pH 7.8 (sodium phosphate) and 8.0 (Tris-Cl). […] As such the ΔA590 was expected to be directly proportional to the concentration of holo-BpsA present in a reaction. This assumption was experimentally verified by monitoring reaction velocity at ten different concentrations of holo-BpsA (360 nM-1.14 μM) at constant L-gln/ATP concentrations; as shown in FIG. 6C the relationship between enzyme concentration and velocity is linear within this range (R^2=0.989). Owing to the lack of an extinction co-efficient for indigoidine in water, coupled with formation of insoluble precipitate, we were unable to derive a kcat value for BpsA. We were however able to discern a reproducible maximum velocities which are expressed with the units ΔA590/s. These parameters were subsequently employed for the derivation of PPTase kinetics as outlined in section 4.11.
Pre-activation mix to bring about conversion of apo to holo BpsA contained 3.4 μM apo-BpsA, 0.25 μM PcpS, 10 mM MgCl2, 100 μM CoA and 50 mM buffer (sodium phosphate buffer pH 7.8 or Tris-Cl pH 8.0) and was incubated for 20 min at 30° C.
A590 measurements were then taken every 6-10 s for ten minutes using an envision EnSpire® microplate reader. The resulting data was visualized and velocities derived using the Slope function of Microsoft Excel®. Kinetic parameters were derived from velocity values using Graphpad Prism®. For examination of the relationship between BpsA concentration and reaction velocity, a triplicate two fold serial dilution series of pre-activated BpsA was established in a 96 wp in a final volume of 50 μL, 100 μl reaction mix without L-gln or ATP was then added to each well. […] A590 values were then recorded and data analysed as previously described.

[5] = BpsA indigoidine synthesis kinetics with respect to ATP (values used in PPTase unit conversion); format: biochemical
Excerpt: The raw data input into SigmaPlot for derivation of kinetic parameters for the PPTases PcpS and PP1183 was maximum change in indigoidine (ind) synthesis reaction rate (change in gradient per second) vs. concentration of CoA present in the reaction. The Vmax values given by SigmaPlot therefore had the units “Change in gradient per second” The assumptions made and calculations used to convert this standard enzyme kinetics units are given below. […] As such the assumption can be made that reaction rate for this enzyme is directly proportional to the concentration of active enzyme according to the equation:
For the reactions used in derivation of kinetic parameters of PPTases, [BpsA]=[E]=1.64 uM. [S]=[ATP]=1 mM.

B1: Sfp: PPTase of B. subtilis subsp. spizizenii ATCC6633 (protein, UniProt P39135 1-224, looked up)
4'-phosphopantetheinyl …: MKIYGIYMDRPLSQEENERFMSFISPEKREKCRRFYHKEDAHRTLLGDVLVRSVISRQYQLDKSDIRFSTQEYGKPCIPDLPDAHFNISHSGRWVICAFDSQPIGIDIEKTKPISLEIAKRFFSKTEYSDLLAKDKDEQTDYFYHLWSMKESFIKQEGKGLSLPLDSFSVRLHQDGQVSIELPDSHSPCYIKTYEVDPGYKMAVCAAHPDFPEDITMVSYEELL
Km (BpsA [1]): 3.3 µM | kcat (BpsA [1]): 2.14 ± 0.04 min⁻¹ | Indigoidine production on co-expression with BpsA (BpsA [2]): substantial production of indigoidine | Km [3]: 620 nM | kcat [3]: 0.128 ± 0.004 min⁻¹

B2: BpsA: single module NRPS protein of S. lavendulae ATCC11924 that converts L-glutamine into indigoidine; SEQ ID NO: 3 (protein, listed as Streptomyces lavendulae)
chain: MTLQETSVLEPTLQGTTTLPGLLAQRVAEHPEAIAVAYRDDKLTFRELASRSAALADYLEHLGVSADDCVGLFVEPSIDLMVGAWGILNAGAAYLPLSPEYPEDRLRYMIENSETKIILAQQRLVSRLRELAPKDVTIVTLRESEAFVRPEGTEAPAARSARPDTLAYVIYTSGSTGKPKGVMIEHRSIVNQLGWLRETYAIDRSKVILQKTPMSFDAAQWEILSPANGATVVMGAPGVYADPEGLIETIVKHNVTTLQCVPTLLQGLIDTEKFPECVSLQQIFSGGEALSRLLAIQTTQEMPGRALINVYGPTETTINSSSFPVDPADLDEGPQSISIGSPVHGTTYHILDKETLKPVGVGEIGELYIGGIQLARGYLHRDDLTAERFLEIELEEGAEPVRLYKTGDLGQWNNDGTVQFAGRADNQVKLRGYRVELDEISLAIENHDWVRNAAVIVKNDGRTGFQNLIACIELSEKEAALMDQGNHGSHHASKKSKLQVKAQLSNPGLRDDAELAARPAFDLEGAEPTPEQRARVFARKTYRFYEGGAVTQADLLGLLGATVTAGYSRKAADLAPAELGQILRWFGQYISEERLLPKYGYASPGALYATQMYFELEGVGGLKPGYYYYQPVRHQLVLISEREATGKATAQIHFIGKKSGIEPVYKNNILEVLEIETGHMVGLFEQILPAYGLDIHDRAYEPAVKDLLDVADEDYYLGTFELVPHAGARDDQAEVYVQTHGGKVAGLPEGQYRYENGELTRFSDDIVLKKHVIAINQSVYQAASFGISVYSRAEEEWLKYITLGKKLQHLMMNGLNLGFMSSGYSSKTGNPLPASRRMDAVLGANGVDSAPMYFFVGGRISDEQIGHEGMREDSVHMRGPAELIRDDLVSFLPDYMIPNRVVVFDRLPLSANGKIDVKALAASDQVNAELVERPFVAPRTETEKEIAAVWEKALRRENASVQDDFFESGGNSLIAVGLVRELNARLGVSLPLQSVLESPTIEKLARRLEREVAQESSRFVRLHAETGKARPVICWPGLGGYPMNLRSLAGEIGLGRSFYGVQSYGINEGETPYETITEMAKKDIEALKEIQPAGPYTLWGYSFGARVAFETAYQLEQAGEKVDNLFLIAPGSPKVRAENGKVWGREASFANRGYTTILFSVFTGTISGPDLDRCLETVTDEASFAEFISELKGIDVDLARRIISVVGQTYEFEYSFHELAERTLQAPISIFKAVGDDYSFLENSSGYSAEPPTVIDLDADHYSLLREDIGELVKHIRYLLGE
Km ([4]; NaPh pH 7.8, ATP 2.5 mM): 2.43 mM | Vmax ([4]; NaPh pH 7.8, ATP 2.5 mM): 1.8 +/− 0.03 (ΔA590 · S^−1 · μM^−1) × 10^−2 | Km ([4]; Tris-Cl pH 8.0, ATP 2.5 mM): 3.33 mM | Vmax ([4]; Tris-Cl pH 8.0, ATP 2.5 mM): 6.5 +/− 0.1 (ΔA590 · S^−1 · μM^−1) × 10^−2 | Km ([5]; ATP as substrate): 11.1 mM | Kcat (BpsA) ([5]; value used for unit conversion of PPTase kinetics): 241.34 min⁻¹
